Molecular target: the molecule itself
Test: crystal structure

B1: VapC1 toxin from Caulobacter crescentus CB15, full length, seleno-methionine substituted (natural protein)
chain: MAYVLDTNVAIHLRDGDPEVTTRVTALNGAILLSIISRVELEGGVYREAAQAGLRRSRLDVMLKVLPVLDFDGAAADEYRRIVESAGYSRRKVVDRMIAAQALAHRATFVTFNADDFRDIPGLSLLAW
modifications: seleno-methionine in place of methionine
stoichiometry N: 2

B2: VapB1 antitoxin from Caulobacter crescentus CB15, full length, seleno-methionine substituted (natural protein, UniProt Q9AC34 1-79, looked up)
chain: MARATGKTFRSGNSEAVRLPRDLAFGADVELTLIRSGDVLTIYPSKGSIADLVATLNQMPRPDSVEIRDEDLFPERPGL
modifications: seleno-methionine in place of methionine
stoichiometry N: 2

Reference: PMC5389673 (Nucleic Acids Research, 2016)
